Assay results from patent US20080226630A1 (SYMPHOGEN A S, published 2008).

T1: recombinant human fractalkine (CX3CL1; R&D systems) (human, UniProt P78423 25-100)
T1 sequence (looked up): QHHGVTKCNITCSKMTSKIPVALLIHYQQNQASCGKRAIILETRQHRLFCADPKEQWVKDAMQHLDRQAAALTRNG

T2: G protein of RSV strain Long (subtype A) (human respiratory syncytial virus …, UniProt P20895 1-298)
T2 chain: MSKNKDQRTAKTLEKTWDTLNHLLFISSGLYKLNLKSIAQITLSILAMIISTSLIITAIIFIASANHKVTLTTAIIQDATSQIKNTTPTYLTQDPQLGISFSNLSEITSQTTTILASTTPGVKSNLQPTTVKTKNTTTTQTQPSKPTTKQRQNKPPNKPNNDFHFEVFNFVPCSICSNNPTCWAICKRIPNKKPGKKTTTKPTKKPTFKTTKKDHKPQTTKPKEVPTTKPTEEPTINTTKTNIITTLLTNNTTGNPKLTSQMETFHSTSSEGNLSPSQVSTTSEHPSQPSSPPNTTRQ

T3: G protein of RSV strain 18537 (subtype B) (human respiratory syncytial virus …, UniProt P20896 1-292)
T3 sequence: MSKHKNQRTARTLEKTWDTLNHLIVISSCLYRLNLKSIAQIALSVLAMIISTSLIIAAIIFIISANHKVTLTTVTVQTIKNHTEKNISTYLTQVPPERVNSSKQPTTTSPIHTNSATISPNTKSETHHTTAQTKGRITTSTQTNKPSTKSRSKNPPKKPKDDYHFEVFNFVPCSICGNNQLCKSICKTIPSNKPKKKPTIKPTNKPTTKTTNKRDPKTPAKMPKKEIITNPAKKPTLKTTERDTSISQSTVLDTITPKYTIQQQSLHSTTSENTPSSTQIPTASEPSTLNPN

B1: antibody 835 (clone 835) (antibody, human IgG1, kappa, V domains shown)
VH: QVQLVQSGAEVKRPGASVKVSCKASGYTFISYGFSWVRQAPGQGLEWMGWSSVYNGDTNYAQKFHGRVNMTTDTSTNTAYMELRGLRSDDTAVYFCARDRNVVLLPAAPFGGMDVWGQGTMVTVSS
VL: DIQLTQSPSFLSASLEDRVTITCRASQGISSYLAWYQQKPGKAPKLLLDAASTLQSGVPSRFSGSGSGTEFTLTISSLQPEDFATYYCQQLNSYPRTFGQGTKVDIKR
B2: antibody 793 (clone 793) (antibody, human IgG1, kappa, V domains shown)
VH: QVQLVESGGGLVKPGGSLRLSCAASGFPFGDYYMSWIRQAPGKGLEWVAYINRGGTTIYYADSVKGRFTISRDNAKNSLFLQMNSLRAGDTALYYCARGLILALPTATVELGAFDIWGQGTMVTVSS
VL: DIQMTQSPSSLSASVGDRVTITCRASQSITGYLNWYQQKPGKAPKLLIYATSTLQSEVPSRFSGSGSGTDFTLTISSLQPEDFATYYCQQSYNTLTFGGGTKVEIKR
B3: antibody 855 (clone 855) (antibody, human IgG1, kappa, V domains shown)
VH: QVQLVQSGPEVKKPGASVKVSCKASGYVLTNYAFSWVRQAPGQGLEWLGWISGSNGNTYYAEKFQGRVTMTTDTSTSTAYMELRSLRSDDTAVYFCARDLLRSTYFDYWGQGTLVTVSS
VL: DIQMTQSPSSVSASVGDRVTITCRASQAISNWLAWYQQKPGKAPKLLIYAASSLQSGVPSRFSGSGSGTDFTLTISGLQPEDFATYYCQQADTFPFTFGPGTKVDIKR
B4: antibody 888 (clone 888) (antibody, human IgG1, kappa, V domains shown)
VH: QLQLQESGPGLVKPSETLSLTCTASGGSINSSNFYWGWIRQPPGKGLEWIGSIFYSGTTYYNPSLKSRVTISVDTSKNQFSLKLSPVTAADTAVYHCARHGFRYCNNGVCSINLDAFDIWGQGTMVTVSS
VL: DIVMTQSPLSLPVTPGAPASISCRSSQSLLRTNGYNYLDWYLQKPGQSPQLLIYLGSIRASGVPDRFSGSGSGTDFTLKISRVEAEDVGVYYCMQSLQTSITFGQGTRLEIKR
B5: antibody 841 (clone 841) (antibody, human IgG1, kappa, V domains shown)
VH: QVQLVQSGAEVKKPGASVKVSCKASGYTFISFGISWVRQAPGQGLEWMGWISAYNGNTDYAQRLQDRVTMTRDTATSTAYLELRSLKSDDTAVYYCTRDESMLRGVTEGFGPIDYWGQGTLVTVSS
VL: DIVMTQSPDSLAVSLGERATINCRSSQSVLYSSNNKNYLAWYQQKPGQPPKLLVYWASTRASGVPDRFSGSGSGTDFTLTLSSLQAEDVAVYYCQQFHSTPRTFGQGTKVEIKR
B6: Palivizumab (Synagis) (antibody, V domains shown)
VH: QVTLRESGPALVKPTQTLTLTCTFSGFSLSTSGMSVGWIRQPPGKALEWLADIWWDDKKDYNPSLKSRLTISKDTSKNQVVLKVTNMDPADTATYYCARSMITNWYFDVWGAGTTVTVSS
VL: DIQMTQSPSTLSASVGDRVTITCKCQLSVGYMHWYQQKPGKAPKLLIYDTSKLASGVPSRFSGSGSGTEFTLTISSLQPDDFATYYCFQGSGYPFTFGGGTKLEIK
B7: antibody 853 (clone 853) (antibody, human IgG1, kappa, V domains shown)
VH: EVQLVQSGAEVKKPGQSLKISCKTSGYIFTNYWIGWVRQRPGKGLEWMGVIFPADSDARYSPSFQGQVTISADKSIGTAYLQWSSLKASDTAIYYCARPKYYFDSSGQFSEMYYFDFWGQGTLVTVSS
VL: EIVLTQSPGTLSLSPGERATLSCRASQSVSSNYLAWYQQKPGQAPRLLIYGASSRAAGMPDRFSGSGSGTDFTLTISRLEPEDFAVYYCQQYGNSPLTFGGGTEVEIKR
B8: antibody 856 (clone 856) (antibody, human IgG1, kappa, V domains shown)
VH: QVQLVQSGAEVKKPGASVKVSCKASGYTFSNYGFSWVRQAPGRGLEWMGWISAYNGNTYYAQNLQGRVTMTTDTSTTTAYMVLRSLRSDDTAMYYCARDGNTAGVDMWSRDGFDIWGQGTMVTVSS
VL: DIVMTQTPLSLPVTPGEPASISCRSSQSLLDSNDGNTYLDWYLQKPGQSPQLLIYTFSYRASGVPDRFSGSGSGTDFTLKISRVEAEDVGVYYCMQRIEFPYTFGQGTKLEIKR

Experiments:
[1] = biological target: T1, recombinant human fractalkine (CX3CL1; …); assay: ELISA on recombinant human fractalkine
Description: Selected clones identified as protein G-specific were also tested for cross-reactivity with recombinant human fractalkine (CX3CL1; R&D systems) by ELISA. Anti-human CX3CL1/Fractalkine monoclonal antibody (R&D systems) was used as a positive control.

[2] = biological target: T2, G protein of RSV strain Long (subtype A); assay: cell-based or functional assay
[3] = biological target: T3, G protein of RSV strain 18537 (subtype …); assay: cell-based or functional assay
[4] = biological target: F protein of RSV strain A2 (human respiratory syncytial virus …, UniProt P03420 26-574); assay: cell-based or functional assay
Chain of F protein of RSV strain A2 (P03420 26-574): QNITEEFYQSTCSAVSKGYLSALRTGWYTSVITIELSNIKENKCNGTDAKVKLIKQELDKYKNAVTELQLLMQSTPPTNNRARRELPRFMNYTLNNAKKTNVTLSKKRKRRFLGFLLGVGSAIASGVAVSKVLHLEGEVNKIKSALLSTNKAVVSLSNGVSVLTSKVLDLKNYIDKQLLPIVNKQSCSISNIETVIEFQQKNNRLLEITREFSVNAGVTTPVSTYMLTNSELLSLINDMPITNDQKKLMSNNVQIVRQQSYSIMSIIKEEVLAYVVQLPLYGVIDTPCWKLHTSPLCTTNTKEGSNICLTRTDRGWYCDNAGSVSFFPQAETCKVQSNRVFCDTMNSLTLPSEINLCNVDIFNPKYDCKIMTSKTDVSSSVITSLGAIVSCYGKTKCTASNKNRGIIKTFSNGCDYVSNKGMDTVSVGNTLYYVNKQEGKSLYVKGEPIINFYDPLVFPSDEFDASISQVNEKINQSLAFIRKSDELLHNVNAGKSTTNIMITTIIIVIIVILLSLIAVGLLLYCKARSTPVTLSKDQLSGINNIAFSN

[5] = biological target: F protein of RSV strain Long (human respiratory syncytial virus …, UniProt P12568 26-574); assay: cell-based or functional assay
Chain of F protein of RSV strain Long (P12568 26-574): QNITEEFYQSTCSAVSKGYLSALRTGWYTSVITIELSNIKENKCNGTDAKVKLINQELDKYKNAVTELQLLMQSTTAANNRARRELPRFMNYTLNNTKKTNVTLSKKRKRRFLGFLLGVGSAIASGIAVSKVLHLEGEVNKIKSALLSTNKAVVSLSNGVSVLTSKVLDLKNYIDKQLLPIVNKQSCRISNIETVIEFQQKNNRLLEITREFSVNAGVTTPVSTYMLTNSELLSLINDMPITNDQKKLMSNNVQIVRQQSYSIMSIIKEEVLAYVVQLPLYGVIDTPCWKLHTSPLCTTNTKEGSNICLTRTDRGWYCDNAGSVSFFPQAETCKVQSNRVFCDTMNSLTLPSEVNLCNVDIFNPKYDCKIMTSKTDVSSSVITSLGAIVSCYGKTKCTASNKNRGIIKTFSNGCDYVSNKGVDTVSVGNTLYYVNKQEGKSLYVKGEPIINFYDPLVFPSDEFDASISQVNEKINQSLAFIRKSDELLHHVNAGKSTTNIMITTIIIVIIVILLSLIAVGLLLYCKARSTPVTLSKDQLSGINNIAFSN

[6] = biological target: F protein of RSV strain 18537 (human respiratory syncytial virus …, UniProt P13843 26-574); assay: cell-based or functional assay
Chain of F protein of RSV strain 18537 (P13843 26-574): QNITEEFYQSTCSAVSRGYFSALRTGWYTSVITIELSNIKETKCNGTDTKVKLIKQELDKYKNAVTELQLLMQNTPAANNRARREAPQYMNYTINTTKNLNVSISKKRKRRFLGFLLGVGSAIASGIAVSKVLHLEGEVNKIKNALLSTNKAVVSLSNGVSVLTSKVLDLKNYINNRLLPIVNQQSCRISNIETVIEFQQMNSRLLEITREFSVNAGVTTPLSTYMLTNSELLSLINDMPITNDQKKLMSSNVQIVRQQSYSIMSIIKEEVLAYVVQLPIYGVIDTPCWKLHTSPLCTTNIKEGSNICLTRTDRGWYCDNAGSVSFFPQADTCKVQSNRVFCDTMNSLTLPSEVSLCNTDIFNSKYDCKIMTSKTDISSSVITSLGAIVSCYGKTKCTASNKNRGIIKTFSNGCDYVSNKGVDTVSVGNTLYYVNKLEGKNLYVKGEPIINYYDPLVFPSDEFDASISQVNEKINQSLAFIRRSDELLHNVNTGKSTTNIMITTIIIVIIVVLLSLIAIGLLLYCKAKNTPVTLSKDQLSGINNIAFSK

Binder | binding result [1] | EC50, PRNT with complement, RSV Long [2] | also measured
B1 | no binding |  | 
B2 | no binding | 2.52 µg/mL | EC50, PRNT with complement, RSV 18537 [3]: 0.09 µg/mL
B3 | no binding | 6.35 µg/mL | 
B4 | no binding | 0.14 µg/mL | 
B5 | no binding |  | 
B6 |  |  | EC50, PRNT with complement, RSV A2 [4]: 0.15 µg/mL; EC50, PRNT with complement, RSV Long [5]: 0.14 µg/mL; EC50, PRNT with complement, RSV 18537 [6]: 0.2 µg/mL
B7 | no binding | 1.49 µg/mL | EC50, PRNT with complement, RSV Long (new determination) [2]: 0.13 µg/mL; EC50, PRNT with complement, RSV 18537 [3]: 0.14 µg/mL
B8 | no binding |  | 
